In US20140057332A1, “GLUCO-OLIGOSACCHARIDE OXIDASES FROM ACREMONIUM STRICTUM AND USES THEREOF” (The Governing Council of the University of Toronto, priority 2011, published 2014):
Substitutions are numbered along the chain they refer to. Numbers in names are those of the source.

T1: Acremonium strictum gluco-oligosaccharide oxidase GOOX-VN variant 1 Y300A, SEQ ID NO. 6 (Sarocladium strictum, UniProt D7PF15, A38V/S388N/Y300A)
T1 sequence (D7PF15 1-474 A38V/Y300A/S388N): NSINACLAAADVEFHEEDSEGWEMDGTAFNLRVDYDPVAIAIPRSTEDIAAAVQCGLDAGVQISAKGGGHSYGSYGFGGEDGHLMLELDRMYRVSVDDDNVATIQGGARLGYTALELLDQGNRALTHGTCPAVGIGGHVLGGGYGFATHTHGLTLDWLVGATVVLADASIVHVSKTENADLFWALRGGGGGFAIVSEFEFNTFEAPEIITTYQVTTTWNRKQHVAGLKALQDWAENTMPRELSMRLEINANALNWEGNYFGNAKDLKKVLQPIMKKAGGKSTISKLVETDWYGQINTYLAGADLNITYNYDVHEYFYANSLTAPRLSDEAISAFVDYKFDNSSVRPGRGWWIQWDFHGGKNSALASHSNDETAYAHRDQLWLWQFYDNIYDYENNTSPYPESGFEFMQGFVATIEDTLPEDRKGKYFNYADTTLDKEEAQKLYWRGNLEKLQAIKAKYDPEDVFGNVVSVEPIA

T2: Acremonium strictum gluco-oligosaccharide oxidase GOOX-VN variant 2 Y300N, SEQ ID NO. 7 (Sarocladium strictum, UniProt D7PF15, A38V/S388N/Y300N)
T2 sequence (D7PF15 1-474 A38V/Y300N/S388N): T1 sequence (D7PF15 1-474 A38V/Y300A/S388N) with A300N

T3: Acremonium strictum gluco-oligosaccharide oxidase GOOX-VN variant 3 W351F, SEQ ID NO. 8 (Sarocladium strictum, UniProt D7PF15, A38V/S388N/W351F)
T3 sequence (D7PF15 1-474 A38V/W351F/S388N): T1 sequence (D7PF15 1-474 A38V/Y300A/S388N) with A300Y, W351F

T4: Acremonium strictum gluco-oligosaccharide oxidase GOOX-VN (type strain CBS 346.70, V38 and N388), SEQ ID NO. 2 (Sarocladium strictum, UniProt D7PF15, A38V/S388N)
T4 sequence (D7PF15 1-474 A38V/S388N): T1 sequence (D7PF15 1-474 A38V/Y300A/S388N) with A300Y

B1: W351A: GOOX-VN mutant with W351A substitution (protein)
chain: T1 sequence (D7PF15 1-474 A38V/Y300A/S388N) with A300Y, W351A
B2: Y72A: GOOX-VN mutant with Y72A substitution (protein)
chain: T1 sequence (D7PF15 1-474 A38V/Y300A/S388N) with Y72A, A300Y
B3: Q384A: GOOX-VN mutant with Q384A substitution (protein)
chain: T1 sequence (D7PF15 1-474 A38V/Y300A/S388N) with A300Y, Q384A
B4: E247A: GOOX-VN mutant with E247A substitution (protein)
chain: T1 sequence (D7PF15 1-474 A38V/Y300A/S388N) with E247A, A300Y
B5: Y72F: GOOX-VN mutant with Y72F substitution (protein)
chain: T1 sequence (D7PF15 1-474 A38V/Y300A/S388N) with Y72F, A300Y

Tests used:
[1] = target: T1, Acremonium strictum gluco-oligosaccharide oxidase GOOX-VN variant 1 Y300A, SEQ ID NO. 6; experiment: Enzymatic assay, kinetic analysis (chromogenic H2O2 assay) of Y300A; conditions: 37° C., pH 8.0
Experimental: (§1) A chromogenic assay was used to measure hydrogen peroxide production (15). Reactions contained 0.1 mM 4aminoantipyrine (4AA), 1 mM phenol, 0.5 U horseradish peroxidase, 40 mM Tris-HCl (pH 8.0), and different substrates were initiated by adding 0.2 μg of enzymes to the 250 μL reaction mixture. The production of H2O2 was coupled to the oxidation of 4aminoantipyrine by horseradish peroxidase and detected at 500 nm. Reactions were incubated at 37° C. for 15 min to measure the specific activity of GOOX on 10 mM of monosaccharide or 1 mM of oligosaccharide.
(§2) At least 12 substrate concentrations were included to obtain kinetic parameters for each substrate. Initial rates were obtained by measuring reaction products every 30 s for 15 min at 37° C. and pH 8.0, and kinetic parameters were calculated using the Michaelis-Menten equation (GraphPad Prism5 Software).

[2] = target: T2, Acremonium strictum gluco-oligosaccharide oxidase GOOX-VN variant 2 Y300N, SEQ ID NO. 7; experiment: Enzymatic assay, kinetic analysis (chromogenic H2O2 assay) of Y300N; conditions: 37° C., pH 8.0
Experimental: as §1, §2

[3] = target: T3, Acremonium strictum gluco-oligosaccharide oxidase GOOX-VN variant 3 W351F, SEQ ID NO. 8; experiment: Enzymatic assay, kinetic analysis (chromogenic H2O2 assay) of W351F; conditions: for kcat: 37° C., pH 8.0
Experimental: as §1, §2

[4] = target: T4, Acremonium strictum gluco-oligosaccharide oxidase GOOX-VN (type strain CBS 346.70, V38 and N388), SEQ ID NO. 2; experiment: Enzymatic assay, kinetic analysis (chromogenic H2O2 assay) of GOOX-VN; conditions: for kcat: 37° C., pH 8.0
[5] = Chromogenic H2O2 oxidase assay on xylohexaose; conditions: 1 mM xylohexaose; 37° C., 15 min
Experimental: as §1
(§3) An additional eight mutations, identified as Y72F, Y72A, E247A, E314A, W351A, N388S, Q353N, Q384A, were created in GOOX-VN to assess the influence of these residues on the substrate selectivity of GOOX-VN. […] The specific activity of each mutant was then measured at 37° C. for 15 min using 10 mM mono-sugars and 1 mM oligosaccharides as performed for Y300A, Y300N, and W351F (Table 11).

[6] = Chromogenic H2O2 oxidase assay on xylotetraose; conditions: 1 mM xylotetraose; 37° C., 15 min
Experimental: as §1, §3

[7] = Chromogenic H2O2 oxidase assay on xylopentaose; conditions: 1 mM xylopentaose; 37° C., 15 min
Experimental: as §1, §3

[8] = Chromogenic H2O2 oxidase assay / kinetic analysis on galactose; conditions: 10 mM galactose; 37° C., 15 min
Experimental: as §1, §2

[9] = Chromogenic H2O2 oxidase assay / kinetic analysis on xylobiose; conditions: 1 mM xylobiose; 37° C., 15 min
Experimental: as §1, §2

[10] = Chromogenic H2O2 oxidase assay / kinetic analysis on cellobiose; conditions: 1 mM cellobiose; 37° C., 15 min
Experimental: as §1, §2

[11] = Chromogenic H2O2 oxidase assay / kinetic analysis on xylotriose; conditions: 1 mM xylotriose; 37° C., 15 min
Experimental: as §1, §2

[12] = Chromogenic H2O2 oxidase assay / kinetic analysis on cellotriose; conditions: 1 mM cellotriose; 37° C., 15 min
Experimental: as §1, §2

[13] = Chromogenic H2O2 oxidase assay / kinetic analysis on glucose; conditions: 10 mM glucose; 37° C., 15 min
Experimental: as §1, §2

Molecule | kcat [1] [s⁻¹] | kcat [2] [s⁻¹] | kcat [3] [s⁻¹] | kcat [4] [s⁻¹] | Specific Activity of Enzyme Variants [5] [µmol/min/mg] | Specific Activity of Enzyme Variants [7] [µmol/min/mg] | Specific Activity of Enzyme Variants [10] [µmol/min/mg] | Specific Activity of Enzyme Variants [12] [µmol/min/mg] | other results
OC[C@H]1OC(O)[C@H](O)[C@@H](O)[C@@H]1O (stereo partly shown) [Glucose, glucose] | 13.22 ± 0.24 | 10.81 ± 0.103 | 5.622 ± 0.08 | 7.485 ± 0.0917 | – | – | – | – | change of Km versus GOOX-VN (in words) ([3]; W351F compared with GOOX-VN): increased; catalytic efficiency (in words) ([4]; among glucose, xylose, galactose, NAG): highest catalytic efficiency
CC(=O)N[C@H]1C(O)O[C@H](CO)[C@@H](O)[C@@H]1O (stereo partly shown) [NAG, N-acetylglucosamine] | – | 11.34 ± 0.113 | 7.785 ± 0.718 | 8.078 ± 0.203 | – | – | – | – | –
OC1OC[C@@H](O)[C@H](O)[C@H]1O (stereo partly shown) [Xylose, xylose] | 11.33 ± 0.137 | 9.932 ± 0.172 | 4.618 ± 0.0633 | 5.248 ± 0.15 | – | – | – | – | change of Km versus GOOX-VN (in words) ([3]; W351F compared with GOOX-VN): increased
OC1OC[C@@H](O[C@@H]2OC[C@@H](O)[C@H](O)[C@H]2O)[C@H](O)[C@H]1O (stereo partly shown) [Xylobiose, xylobiose] | 13.29 ± 0.122 | 11.96 ± 0.125 | – | – | – | – | – | – | –
OC1OC[C@@H](O[C@@H]2OC[C@@H](O[C@@H]3OC[C@@H](O)[C@H](O)[C@H]3O)[C@H](O)[C@H]2O)[C@H](O)[C@H]1O (stereo partly shown) [Xylotriose, xylotriose] | 13.87 ± 0.11 | 11.97 ± 0.185 | – | – | – | – | – | – | –
OC[C@H]1O[C@@H](O[C@H]2[C@H](O)[C@@H](O)C(O)O[C@@H]2CO)[C@H](O)[C@@H](O)[C@@H]1O (stereo partly shown) [Cellobiose, cellobiose] | 13.72 ± 0.258 | 11.4 ± 0.187 | – | – | – | – | – | – | –
OC[C@H]1OC(O)[C@H](O)[C@@H](O)[C@H]1O (stereo partly shown) [Galactose, galactose] | 13.3 ± 0.245 | 11.76 ± 0.0883 | 6.56 ± 0.075 | 7.152 ± 0.137 | – | – | – | – | change of Km versus GOOX-VN (in words) ([3]; W351F compared with GOOX-VN): decreased; change of catalytic efficiency versus GOOX-VN (in words) ([3]; W351F compared with GOOX-VN): higher catalytic efficiency
B1 | – | – | – | – | 0.5 | 0.3 | 0.6 | 1.1 | Specific Activity of Enzyme Variants [6]: 0.3 µmol/min/mg; Specific Activity of Enzyme Variants [8]: 0.3 µmol/min/mg; Specific Activity of Enzyme Variants [9]: 0.1 µmol/min/mg; Specific Activity of Enzyme Variants [11]: 0.1 µmol/min/mg
B2 | – | – | – | – | 2.2 | 3.2 | 1.1 | 2.1 | Specific Activity of Enzyme Variants [6]: 2.5 µmol/min/mg; Specific Activity of Enzyme Variants [9]: 0.5 µmol/min/mg; Specific Activity of Enzyme Variants [11]: 1.3 µmol/min/mg
B3 | – | – | – | – | 0.1 | – | 0.2 | 0.4 | –
B4 | – | – | – | – | 5.1 | 5.2 | 2.2 | 2.7 | Specific Activity of Enzyme Variants [6]: 5.3 µmol/min/mg; Specific Activity of Enzyme Variants [13]: 0.4 µmol/min/mg; Specific Activity of Enzyme Variants [9]: 4.2 µmol/min/mg; Specific Activity of Enzyme Variants [11]: 3.5 µmol/min/mg
B5 | – | – | – | – | – | 0.4 | 0.2 | 0.5 | –
